Laboratory results: patent publication US7078511B1

Tests used:
[1] = biological target: Drosophila melanogaster scavenger receptor type CI (Drosophila melanogaster)
[2] = biological target: hamster scavenger receptor type BI (hamster); assay: ^125I-AcLDL (5 µg/ml) binding at 4° C. to ldlA[haSR-BI] cells, no competitor

^125I-AcLDL Degradation (% No Competitor) (% No Competitor) [1]	125I-AcLDL binding (ng/mg cell protein) [2]	Substance
34		Poly D-glutamic acid (peptide)
4.8	293	acetylated low density lipoprotein
97.6		low density lipoprotein
